Results published in FireProtDB.
Where “and” joins values, the source holds several entries; their conditions need not be identical. Identical values can stand only once.

Settings: whole UniProt chain shown; for denaturant m value / denaturant midpoint (higher = more stable) / unfolding free energy: GdnHCl
[1] = Manduca sexta, pH 7, 25 °C, CD, Potassium phosphate 50 mM, reversible: yes
[2] = Momordica charantia, pH 7.5, 25 °C, fluorescence, Tris-HCl 10 mM, NaCl 200 mM
[3] = Notophthalmus viridescens, pH 7.2, 25 °C, CD, Phosphate 100 mM
[4] = Mus musculus, pH 2, Thermal, DSC, Potassium phosphate 40 mM, reversible: yes
[5] = Mus musculus, pH 2.7, Thermal, DSC, Potassium phosphate 40 mM, reversible: yes
[6] = Mus musculus, pH 7, Thermal, DSC, Potassium phosphate 40 mM, reversible: yes
[7] = Pseudomonas aeruginosa (strain ATCC 15692 / DSM 22644 / CIP 104116 / JCM 14847 / LMG 12228 / 1C / PRS 101 / PAO1), pH 7, 20 °C, CD, phosphate 5 mM, reversible: yes
[8] = Pseudomonas aeruginosa (strain ATCC 15692 / DSM 22644 / CIP 104116 / JCM 14847 / LMG 12228 / 1C / PRS 101 / PAO1), pH 8, Thermal, DSC, Tris-HCl 10 mM, NaCl 200 mM, reversible: yes
[9] = Nitratidesulfovibrio vulgaris (strain DSM 19637 / Miyazaki F), pH 7, 20 °C, CD, phosphate 0.1 M, reversible: yes
[10] = Pseudomonas aeruginosa (strain ATCC 15692 / DSM 22644 / CIP 104116 / JCM 14847 / LMG 12228 / 1C / PRS 101 / PAO1), pH 7, Thermal, CD, KH2PO4-NaOH 10 mM, reversible: yes

B1: wild type, P95467 (protein)
chain: MKKALIASTALLLTAGVAAADVKISGYGRTGVIYYENDSDVNESRVQSRLRMNIDASSSTDSGVDFGARFRLQWDQGEEGEAQTNAGKLWVSAQGFTVEVGNVDTAFASNGLIYETGLGSYDRSVGFSAVTGAFFAYDSNGYGIDEVDRVGIRALYTLGDLTLQASYVDPDQSGTVIGVEEEFGFSVDYTWNERLELSAAAAFNGAGIDGNDIYFLGARYAVMDNARIGLNFVDAGDEEDGYDGKTIALYGDYTLADGRTNLEAYIANNDRDSNETDNAFGIGVNYDLGGARLGASLQRDYAENVTADFGVRFEF
Tm (Paracoccus denitrificans, pH 1.5, Thermal, CD, Unknown, reversible: No): 78.5 °C
Tm (Paracoccus denitrificans, pH 4, Thermal, CD, Unknown, reversible: No): 82.6 °C
Tm (Paracoccus denitrificans, pH 8, Thermal, Absorbance, Tris-HCl 50 mM, NaCl 100 mM, reversible: no): 86.2 °C
Tm (Paracoccus denitrificans, pH 8, Thermal, CD, Unknown, reversible: No): 86.2 °C
Tm (Paracoccus denitrificans, pH 10, Thermal, CD, Unknown, reversible: No): 86.2 °C

B2: Apolipophorin-3 wild type, P13276 (protein)
chain: MAAKFVVVLAACVALSHSAMVRRDAPAGGNAFEEMEKHAKEFQKTFSEQFNSLVNSKNTQDFNKALKDGSDSVLQQLSAFSSSLQGAISDANGKAKEALEQARQNVEKTAEELRKAHPDVEKEANAFKDKLQAAVQTTVQESQKLAKEVASNMEETNKKLAPKIKQAYDDFVKHAEEVQKKLHEAATKQ
denaturant m value [1]: 3.65 kcal/mol/M
denaturant midpoint (higher = more stable) [1]: 0.36 M
unfolding free energy [1]: 1.29 kcal/mol
Tm (Manduca sexta, pH 7, Thermal, CD, Potassium phosphate 50 mM, reversible: yes): 52 °C

B3: Ribonuclease MC wild type, P23540 (protein)
chain: FDSFWFVQQWPPAVCSFQKSGSCPGSGLRTFTIHGLWPQGSGTSLTNCPQGSPFDITKISHLQSQLNTLWPNVLRANNQQFWSHEWTKHGTCSESTFNQAAYFKLAVDMRNNYDIIGALRPHAAGPNGRTKSRQAIKGFLKAKFGKFPGLRCRTDPQTKVSYLVQVVACFAQDGSTLIDCTRDTCGANFIF
denaturant midpoint (higher = more stable) [2]: 2.57 M
unfolding free energy [2]: 13.2 kcal/mol
Tm (Momordica charantia, pH 7.5, Thermal, CD, Tris-HCl 10 mM, NaCl 200 mM): 64.4 °C

B4: Fibroblast growth factor 1 wild type, Q7SIF8 (protein)
chain: QKPKLLYCSNGGYFLRIFPDGKVDGTRDRSDPYIQLQFYAESVGEVYIKSLETGQYLAMDSDGQLYASQSPSEECLFLERLEENNYNTYKSKVHADKDWFVGIKKNGKTKPGSRTHFGQKAILFLPLPVSSD
denaturant m value [3]: 3.8 kcal/mol/M
denaturant midpoint (higher = more stable) [3]: 1.6 M
unfolding free energy [3]: 6.1 kcal/mol

B5: Ig gamma-1 chain C region secreted form wild type, P01868 (protein)
chain: AKTTPPSVYPLAPGSAAQTNSMVTLGCLVKGYFPEPVTVTWNSGSLSSGVHTFPAVLQSDLYTLSSSVTVPSSPRPSETVTCNVAHPASSTKVDKKIVPRDCGCKPCICTVPEVSSVFIFPPKPKDVLTITLTPKVTCVVVDISKDDPEVQFSWFVDDVEVHTAQTQPREEQFNSTFRSVSELPIMHQDWLNGKEFKCRVNSAAFPAPIEKTISKTKGRPKAPQVYTIPPPKEQMAKDKVSLTCMITDFFPEDITVEWQWNGQPAENYKNTQPIMNTNGSYFVYSKLNVQKSNWEAGNTFTCSVLHEGLHNHHTEKSLSHSPGK
Tm [4]: 69.3 °C
unfolding enthalpy (calorimetric) [4]: 84 kcal/mol
Tm [5]: 69.5 °C
unfolding enthalpy (calorimetric) [5]: 86.6 kcal/mol
Tm [6]: 70.2 °C
unfolding enthalpy (calorimetric) [6]: 174 kcal/mol

B6: Azurin wild type, P00282 (protein)
chain: MLRKLAAVSLLSLLSAPLLAAECSVDIQGNDQMQFNTNAITVDKSCKQFTVNLSHPGNLPKNVMGHNWVLSTAADMQGVVTDGMASGLDKDYLKPDDSRVIAHTKLIGSGEKDSVTFDVSKLKEGEQYMFFCTFPGHSALMKGTLTLK
denaturant m value [7]: 4.18 kcal/mol/M
denaturant midpoint (higher = more stable) [7]: 1.7 M
unfolding free energy [7]: 6.96 kcal/mol
unfolding free energy (Pseudomonas aeruginosa (strain ATCC 15692 / DSM 22644 / CIP 104116 / JCM 14847 / LMG 12228 / 1C / PRS 101 / PAO1), pH 7.5, 40 °C, Fluorescence, Tris Cl 2 mM, reversible: Yes): 8.6 kcal/mol
Tm [8]: 62 °C
unfolding enthalpy (calorimetric) [8]: 165 kcal/mol

B7: Cytochrome c-553 wild type, P00120 (protein)
chain: MKRILVVMSICAALAFGVSAAMAADGAALYKSCVGCHGADGSKQAMGVGHAVKGQKADELFKKLKGYADGSYGGEKKAVMTNLVKRYSDEEMKAMADYMSKL
denaturant m value [9]: 2.49 kcal/mol/M and 2.75 kcal/mol/M
denaturant midpoint (higher = more stable) [9]: 3.65 M and 3.91 M
unfolding free energy [9]: 9.08 kcal/mol and 10.8 kcal/mol

B8: Cytochrome c-551 wild type, P00099 (protein)
chain: MKPYALLSLLATGTLLAQGAWAEDPEVLFKNKGCVACHAIDTKMVGPAYKDVAAKFAGQAGAEAELAQRIKNGSQGVWGPIPMPPNAVSDDEAQTLAKWVLSQK
Tm [10]: 56 °C
unfolding enthalpy (van 't Hoff) [10]: 39.5 kcal/mol
